Laboratory results from publication PMC6353796, “Thermostable Branched-Chain Amino Acid Transaminases From the Archaea Geoglobus acetivorans and Archaeoglobus fulgidus: Biochemical and Structural Characterization” (Frontiers in Bioengineering and Biotechnology, 2019).
Values joined by “and” are separate entries in the source; they are usually repeats but may differ in a detail not shown here. Identical values can stand only once.

Tests used:
[1] = molecular target: GEO1900, branched-chain amino acid transaminase (BCAT) from Geoglobus acetivorans (Geoglobus acetivorans); test: crystal structure; GEO1900 holo form and AKG complex, space group P3(2)21, three subunits per asymmetric unit; hexamer built with symmetry mates
[2] = molecular target: GEO1900, branched-chain amino acid transaminase (BCAT) from Geoglobus acetivorans (Geoglobus acetivorans); test: SEC; GEO1900 on Superdex 200 in 30 mM Tris-HCl, pH 8.0, 300 mM NaCl; native molecular weight by gel filtration

stoichiometry N [1]: 6 | stoichiometry N [2]: 2 and 4
Substance: GEO1900, branched-chain amino acid transaminase (BCAT) from Geoglobus acetivorans (enzyme)
